Where no end group is shown, it is not given here.
B1: Phage-3355 (Peptide-180 library peptide) (peptide)
peptide: IGLLCAPKWMCEGF
modifications: cysteine pairing not given here; also: fused to pIII of bacteriophage
notes: tested as crude clonal phage supernatant
B2: Phage-3360 (Peptide-180 library peptide) (peptide)
peptide: FPVRCVPEWMCSGF
notes: as for B1
B3: Phage-3356 (Peptide-180 library peptide) (peptide)
peptide: LSWHCIPEWMCAGF
modifications: cysteine pairing not given here; also: fused to pIII of bacteriophage
notes: as for B1
B4: Phage-3352 (Peptide-180 library peptide) (peptide)
peptide: VDHVCRPIWMCIGF
notes: as for B1
B5: Phage-3362 (Peptide-180 library peptide) (peptide)
peptide: HDLSCVPRWMCDGF
notes: as for B1
B6: Phage-3353 (Peptide-180 library peptide) (peptide)
peptide: SEHFCRPAWMCTGF
notes: as for B1
B7: Phage-3357 (Peptide-180 library peptide) (peptide)
peptide: DTIQCKPAWMCVGF
notes: as for B1
B8: Phage-3358 (Peptide-180 library peptide) (peptide)
peptide: VIIKCEPRWMCEGF
notes: as for B1
B9: Phage-3359 (Peptide-180 library peptide) (peptide)
peptide: VESWCIPAWMCTGF
notes: as for B1
B10: Phage-3354 (Peptide-180 library peptide) (peptide)
peptide: GQMYCKPSWMCNGF
notes: as for B1
B11: Phage-3351 (Peptide-180 library peptide) (peptide)
peptide: VRPMCEPVWMCMGF
notes: as for B1
B12: Phage-3361 (Peptide-180 library peptide) (peptide)
peptide: WMPYCVPHWMCDGF
notes: as for B1
B13: Phage-3363 (Peptide-180 library peptide) (peptide)
peptide: EDVLCKPLWMCFGF
notes: as for B1

Each binder was assayed against T1, PSMA Fab (006 PSMA Fab) (biotinylated (site not stated)) (assay: clonal phage ELISA on captured PSMA Fab pre-incubated with PSMA antigen as competitor;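 note: crude clonal phage supernatants added to wells without washing away the PSMA competitor, bound phage detected by HRP-conjugated anti-M13 antibody, reference wells received blocking buffer only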).
T1 construct: In the clonal phage ELISA the biotinylated PSMA Fab was captured on neutravidin coated plates; also called Anti-PSMA Fab

Row | Binder | Phage binding ELISA signal, Anti-PSMA Fab with PSMA antigen
1 | DHVMCKPKWMCEGF [Phage-3367] | 0.0947
2 | QLPMCVPRWMCDGW [Phage-3366] | 0.129
3 | IAVMCKPEWMCVGF [Phage-3368] | 0.0964
4 | ESNFCVPAWMCTGF (cysteine pairing not given here; also: fused to pIII of bacteriophage) [Phage-3364] | 0.073
5 | FEMLCRPIWMCTGF [Phage-3365] | 0.14

What follows are binders tested against T1, PSMA Fab (006 PSMA Fab) (assay: clonal phage ELISA on biotinylated PSMA Fab captured on neutravidin, anti-M13 HRP detection, no PSMA).
Protocol: (§1) Clonal phage were harvested as crude supernatants and screened via standard ELISAs. […] Prior to the addition of clonal phage. wells were incubated with blocking buffer and PSMA antigen or blocking buffer alone. Without washing or aspirating, clonal phage supernatants were then added to the wells and incubated for a short time. Wells were then washed followed by detection of bound phage using a horse radish conjugated anti-M13 antibody.

Row | Binder | Phage binding ELISA signal, Anti-PSMA Fab
6 | DHVMCKPKWMCEGF [Phage-3367] | 1.82
7 | QLPMCVPRWMCDGW [Phage-3366] | 1.82
8 | IAVMCKPEWMCVGF [Phage-3368] | 1.82
9 | ESNFCVPAWMCTGF (cysteine pairing not given here; also: fused to pIII of bacteriophage) [Phage-3364] | 1.82
10 | FEMLCRPIWMCTGF [Phage-3365] | 1.82

These binders were tested against T2, PSMA Fab (006 PSMA Fab) (assay: phage ELISA: clonal phage supernatant on biotinylated PSMA Fab captured on neutravidin plate, blocking buffer alone; anti-M13 HRP detection;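 note: crude clonal phage supernatants added to wells preincubated with blocking buffer, incubated briefly, bound phage detected with a horseradish-conjugated anti-M13 antibody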).
T2 construct: also called Anti-PSMA Fab
Protocol: as §1

Row | Binder | phage binding ELISA signal
11 | B1 | 1.82
12 | B2 | 1.82
13 | B3 | 1.82
14 | B4 | 1.82
15 | B5 | 1.82
16 | B6 | 1.82
17 | B7 | 1.82
18 | B8 | 1.82
19 | B9 | 1.82
20 | B10 | 1.82
21 | B11 | 1.82
22 | B12 | 1.82
23 | B13 | 1.82

What follows are binders tested against T2, PSMA Fab (006 PSMA Fab) (assay: phage ELISA: clonal phage supernatant on biotinylated PSMA Fab captured on neutravidin plate, wells pre-incubated with PSMA antigen as competitor; anti-M13 HRP detection).
Protocol: as §1

Row | Binder | phage binding ELISA signal
24 | B1 | 0.0676
25 | B2 | 0.0748
26 | B3 | 0.07
27 | B4 | 0.0934
28 | B5 | 0.0671
29 | B6 | 0.0801
30 | B7 | 0.102
31 | B8 | 0.068
32 | B9 | 0.0794
33 | B10 | 0.0788
34 | B11 | 0.0972
35 | B12 | 0.119
36 | B13 | 0.0901

Reference: patent US20260242478A1 (published 2026)
